Experiment [1] concerns the target voltage-gated sodium channel Nav1.4 (UniProt P35499).
For experiment [2], the target named is voltage-gated sodium channel Nav1.7 (UniProt Q15858).
The target in experiment [3] is voltage-gated sodium channel Nav1.1 (UniProt P35498).
Experiment [4] addresses voltage-gated sodium channel Nav1.2 (UniProt Q99250).
For experiment [5], the target named is voltage-gated sodium channel Nav1.3 (UniProt Q9NY46).
Experiment [6] deals with voltage-gated sodium channel Nav1.4 (UniProt P35499). This is another data set of the same source.
Sequence of voltage-gated sodium channel Nav1.4 (P35499 whole entry): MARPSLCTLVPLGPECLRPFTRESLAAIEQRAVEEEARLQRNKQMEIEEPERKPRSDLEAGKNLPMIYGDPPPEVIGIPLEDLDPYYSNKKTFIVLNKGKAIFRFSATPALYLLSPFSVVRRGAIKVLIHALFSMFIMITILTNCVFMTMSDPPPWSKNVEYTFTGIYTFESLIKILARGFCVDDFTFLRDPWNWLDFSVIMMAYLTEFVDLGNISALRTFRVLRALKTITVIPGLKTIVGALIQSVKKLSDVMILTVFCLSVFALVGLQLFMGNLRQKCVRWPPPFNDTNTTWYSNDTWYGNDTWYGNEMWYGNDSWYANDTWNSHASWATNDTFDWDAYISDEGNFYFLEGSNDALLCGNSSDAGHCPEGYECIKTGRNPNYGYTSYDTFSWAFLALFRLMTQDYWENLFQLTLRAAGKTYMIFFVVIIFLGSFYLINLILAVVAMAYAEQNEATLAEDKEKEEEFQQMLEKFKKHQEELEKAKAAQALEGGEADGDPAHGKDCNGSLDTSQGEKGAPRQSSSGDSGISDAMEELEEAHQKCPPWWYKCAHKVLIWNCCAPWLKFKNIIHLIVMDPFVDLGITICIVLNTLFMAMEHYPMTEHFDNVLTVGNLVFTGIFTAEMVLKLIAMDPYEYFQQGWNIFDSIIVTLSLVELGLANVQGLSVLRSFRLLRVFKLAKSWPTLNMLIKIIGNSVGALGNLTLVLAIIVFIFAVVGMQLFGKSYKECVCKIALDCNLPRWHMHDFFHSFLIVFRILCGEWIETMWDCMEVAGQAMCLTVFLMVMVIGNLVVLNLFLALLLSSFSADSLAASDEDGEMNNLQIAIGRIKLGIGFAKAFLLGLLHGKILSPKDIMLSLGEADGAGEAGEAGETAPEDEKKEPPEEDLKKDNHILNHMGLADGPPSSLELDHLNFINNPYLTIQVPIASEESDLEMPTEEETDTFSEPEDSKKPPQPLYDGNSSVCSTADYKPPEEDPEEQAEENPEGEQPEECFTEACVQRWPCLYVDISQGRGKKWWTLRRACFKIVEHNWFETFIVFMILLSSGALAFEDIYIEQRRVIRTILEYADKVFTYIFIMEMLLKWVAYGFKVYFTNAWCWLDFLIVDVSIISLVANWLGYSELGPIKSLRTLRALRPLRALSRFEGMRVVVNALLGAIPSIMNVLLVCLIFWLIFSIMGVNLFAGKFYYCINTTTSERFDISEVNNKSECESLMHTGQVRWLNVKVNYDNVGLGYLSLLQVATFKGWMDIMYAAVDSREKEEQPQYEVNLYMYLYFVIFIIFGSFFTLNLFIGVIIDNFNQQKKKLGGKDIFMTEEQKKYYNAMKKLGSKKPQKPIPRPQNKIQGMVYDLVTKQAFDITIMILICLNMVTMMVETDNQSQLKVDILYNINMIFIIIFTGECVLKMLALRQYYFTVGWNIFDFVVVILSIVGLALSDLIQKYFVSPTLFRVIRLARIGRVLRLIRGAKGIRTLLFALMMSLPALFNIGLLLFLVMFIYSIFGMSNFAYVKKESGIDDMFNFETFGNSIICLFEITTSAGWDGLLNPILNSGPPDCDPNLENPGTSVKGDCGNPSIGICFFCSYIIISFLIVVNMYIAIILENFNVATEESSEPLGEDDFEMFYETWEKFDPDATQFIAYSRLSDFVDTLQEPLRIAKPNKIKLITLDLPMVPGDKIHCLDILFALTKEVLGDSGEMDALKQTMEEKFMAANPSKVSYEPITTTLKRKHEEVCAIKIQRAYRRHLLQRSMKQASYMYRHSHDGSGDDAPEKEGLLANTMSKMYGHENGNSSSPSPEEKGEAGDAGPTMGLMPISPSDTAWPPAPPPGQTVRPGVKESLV
In experiment [7] the target is voltage-gated sodium channel Nav1.5 (UniProt Q14524).
For experiment [8], the target named is voltage-gated sodium channel Nav1.6 (UniProt Q9UQD0).
Experiment [9] has as its target voltage-gated sodium channel Nav1.7 (UniProt Q15858). This is another data set of the same source.

The results in this text go back to publication PMC11209618.

Sequence of Tst3 toxin from Tityus stigmurus venom (P0C8X5 whole entry): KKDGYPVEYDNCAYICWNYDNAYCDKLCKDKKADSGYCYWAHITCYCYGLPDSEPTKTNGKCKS
Sequence of voltage-gated sodium channel Nav1.7 (Q15858 whole entry): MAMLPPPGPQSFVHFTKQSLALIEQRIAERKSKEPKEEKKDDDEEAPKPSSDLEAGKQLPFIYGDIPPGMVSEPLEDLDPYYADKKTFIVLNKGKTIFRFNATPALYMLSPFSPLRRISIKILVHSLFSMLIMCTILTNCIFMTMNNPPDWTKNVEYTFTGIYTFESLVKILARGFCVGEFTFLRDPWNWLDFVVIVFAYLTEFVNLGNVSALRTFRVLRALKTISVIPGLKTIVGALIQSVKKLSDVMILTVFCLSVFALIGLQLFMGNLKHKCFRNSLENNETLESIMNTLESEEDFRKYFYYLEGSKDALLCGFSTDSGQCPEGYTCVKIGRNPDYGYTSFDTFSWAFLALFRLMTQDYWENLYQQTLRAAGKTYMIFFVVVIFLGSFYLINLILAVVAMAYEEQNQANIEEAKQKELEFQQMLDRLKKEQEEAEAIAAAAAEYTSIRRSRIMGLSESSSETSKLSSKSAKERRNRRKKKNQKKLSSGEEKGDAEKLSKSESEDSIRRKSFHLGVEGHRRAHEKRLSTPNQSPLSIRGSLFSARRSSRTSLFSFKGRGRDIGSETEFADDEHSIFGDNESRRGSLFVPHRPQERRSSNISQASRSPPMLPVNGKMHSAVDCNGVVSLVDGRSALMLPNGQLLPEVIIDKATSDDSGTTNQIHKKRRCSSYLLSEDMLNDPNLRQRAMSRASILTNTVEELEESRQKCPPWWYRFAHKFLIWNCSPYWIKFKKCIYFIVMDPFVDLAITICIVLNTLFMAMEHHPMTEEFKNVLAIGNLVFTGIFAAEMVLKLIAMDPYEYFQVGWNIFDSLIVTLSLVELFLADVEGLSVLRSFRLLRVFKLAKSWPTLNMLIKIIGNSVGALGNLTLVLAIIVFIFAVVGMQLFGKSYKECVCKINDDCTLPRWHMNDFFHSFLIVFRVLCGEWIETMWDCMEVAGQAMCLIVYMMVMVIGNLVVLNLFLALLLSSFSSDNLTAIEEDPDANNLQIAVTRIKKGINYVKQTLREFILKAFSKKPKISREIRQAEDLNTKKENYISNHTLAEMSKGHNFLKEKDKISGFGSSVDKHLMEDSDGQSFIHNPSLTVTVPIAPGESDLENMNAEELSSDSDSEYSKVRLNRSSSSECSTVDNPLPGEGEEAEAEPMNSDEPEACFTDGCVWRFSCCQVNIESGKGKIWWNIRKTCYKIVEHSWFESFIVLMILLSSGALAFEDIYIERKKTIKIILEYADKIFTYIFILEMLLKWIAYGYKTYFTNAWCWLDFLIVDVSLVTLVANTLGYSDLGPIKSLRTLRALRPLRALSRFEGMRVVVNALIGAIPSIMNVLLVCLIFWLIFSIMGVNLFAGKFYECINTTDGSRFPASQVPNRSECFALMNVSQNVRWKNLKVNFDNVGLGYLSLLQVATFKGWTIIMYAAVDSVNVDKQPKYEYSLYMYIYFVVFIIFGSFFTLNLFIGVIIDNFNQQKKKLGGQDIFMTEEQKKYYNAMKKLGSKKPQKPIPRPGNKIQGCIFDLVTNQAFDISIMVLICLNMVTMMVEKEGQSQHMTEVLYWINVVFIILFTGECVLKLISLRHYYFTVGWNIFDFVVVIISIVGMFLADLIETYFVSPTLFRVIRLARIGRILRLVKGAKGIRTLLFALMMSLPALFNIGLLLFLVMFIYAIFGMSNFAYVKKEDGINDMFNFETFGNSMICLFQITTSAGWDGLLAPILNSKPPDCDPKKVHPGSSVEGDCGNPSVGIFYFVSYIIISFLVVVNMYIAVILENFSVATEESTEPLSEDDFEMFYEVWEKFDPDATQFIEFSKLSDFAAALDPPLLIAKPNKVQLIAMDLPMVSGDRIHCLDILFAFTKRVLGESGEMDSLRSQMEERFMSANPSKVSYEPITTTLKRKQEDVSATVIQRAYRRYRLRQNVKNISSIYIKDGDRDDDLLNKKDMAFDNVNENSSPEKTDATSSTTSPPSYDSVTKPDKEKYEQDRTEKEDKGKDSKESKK

Take “Ts3 toxin from Tityus serrulatus venom (natural protein)”: in experiment [1], the increase of the fast inactivation time constant (Δτ) of Nav1.4 currents recorded at 0 mV, whole-cell patch clamp, 200 nM Ts3 turned out to be 4.82 ms; the increase of the persistent current (ΔIPers) of Nav1.4, whole-cell patch clamp, 200 nM Ts3 is 3.1%; the shift of the half-maximal activation voltage (ΔV1/2) of Nav1.4, whole-cell patch clamp, 200 nM Ts3 was -4.15 mV; the shift of the half-maximal steady-state inactivation voltage (ΔV1/2h) of Nav1.4, whole-cell patch clamp, 200 nM Ts3 came out at 2.03 mV. The same substance showed a delay of fast inactivation of Nav1.7 currents recorded at 0 mV, whole-cell patch clamp, 200 nM Ts3 in experiment [2] of 9.37 ms.
As to “Tst3 toxin from Tityus stigmurus venom (from UniProt P0C8X5 1-64) (natural protein)”, in experiment [1], the increase of the fast inactivation time constant (Δτ) of Nav1.4 currents recorded at 0 mV, two-step protocol of the Tst3/Ts3 comparison, whole-cell patch clamp, 200 nM Tst3 was determined as 6.09 ms; the increase of the persistent current (ΔIPers) of Nav1.4, whole-cell patch clamp, 200 nM Tst3 was 4.4%; the shift of the half-maximal activation voltage (ΔV1/2) of Nav1.4, whole-cell patch clamp, 200 nM Tst3 was -5.19 mV; the shift of the half-maximal steady-state inactivation voltage (ΔV1/2h) of Nav1.4, whole-cell patch clamp, 200 nM Tst3 amounted to 1.22 mV. Also, in experiment [3], the increase of the fast inactivation time constant (Δτ) of Nav1.1, whole-cell patch clamp, 200 nM Tst3 was found to be 5.71 ms and the shift of the half-maximal activation voltage (ΔV1/2) of Nav1.1, whole-cell patch clamp, 200 nM Tst3 is -7.15 mV. Besides, in [4], the increase of the fast inactivation time constant (Δτ) of Nav1.2, whole-cell patch clamp, 200 nM Tst3 came to 9.17 ms and the shift of the half-maximal activation voltage (ΔV1/2) of Nav1.2, whole-cell patch clamp, 200 nM Tst3 was -9.02 mV. Besides, in experiment [5], the increase of the fast inactivation time constant (Δτ) of Nav1.3, whole-cell patch clamp, 200 nM Tst3 was determined as 6.87 ms and the shift of the half-maximal activation voltage (ΔV1/2) of Nav1.3, whole-cell patch clamp, 200 nM Tst3 was -8.68 mV. The same substance displayed an increase of the fast inactivation time constant (Δτ) of Nav1.4, activation protocol of the isoform screen, whole-cell patch clamp, 200 nM Tst3 in experiment [6] of 5.61 ms. In experiment [7], the increase of the fast inactivation time constant (Δτ) of Nav1.5, whole-cell patch clamp, 200 nM Tst3 stood at 13.2 ms and the shift of the half-maximal activation voltage (ΔV1/2) of Nav1.5, whole-cell patch clamp, 200 nM Tst3 is -8.66 mV. Besides, in [8], the increase of the fast inactivation time constant (Δτ) of Nav1.6, whole-cell patch clamp, 200 nM Tst3 was determined as 6.37 ms and the shift of the half-maximal activation voltage (ΔV1/2) of Nav1.6, whole-cell patch clamp, 200 nM Tst3 is -3.82 mV. Moreover, in [9], the increase of the fast inactivation time constant (Δτ) of Nav1.7, activation protocol of the isoform screen, whole-cell patch clamp, 200 nM Tst3 came out at 18.8 ms and the shift of the half-maximal activation voltage (ΔV1/2) of Nav1.7, whole-cell patch clamp, 200 nM Tst3 was -8.55 mV. Besides, the delay of fast inactivation of Nav1.7 currents recorded at 0 mV, whole-cell patch clamp, 200 nM Tst3 in [2] was determined as 12.6 ms.
